PMC3404986, “Pyridoxal 5′-Phosphate Is a Slow Tight Binding Inhibitor of E. coli Pyridoxal Kinase” (PLoS ONE, 2012)

Tests used:
[1] = test system: T1, Cc1ncc(CO)c(C=O)c1O; experiment: purified protein; assay type: biochemical, Escherichia coli; details: MgATP co-substrate, 20 mM K-HEPES pH 7.5, 0.2 mM MgCl2, 37°C
T1 construct: full length, recombinant from E. coli; wild type untagged (as previously described); K229Q His-tagged (C-terminus; pET28a NdeI/EcoRI)

[2] = test system: T2, Nc1ncnc2c1ncn2[C@@H]1O[C@H](COP(=O)(O)OP(=O)(O)OP(=O)(O)O)[C@@H](O)[C@H]1O; experiment: purified protein; assay type: biochemical, Escherichia coli; details: PL co-substrate, 20 mM K-HEPES pH 7.5, 0.2 mM MgCl2, 37°C
T2 construct: full length, recombinant from E. coli; wild type untagged (as previously described); K229Q His-tagged (C-terminus; pET28a NdeI/EcoRI)

ePL kinase (E. coli pyridoxal kinase 1, PL kinase1) (Escherichia coli K-12)
Km [1]: 60 µM | kcat [1]: 4 s⁻¹ | Km [2]: 460 µM | kcat [2]: 4 s⁻¹

ePL kinase (E. coli pyridoxal kinase 1, PL kinase1) (Escherichia coli K-12; K229Q)
Km ([1]; His-tagged): 384 µM | kcat ([1]; His-tagged): 0.433 s⁻¹ | Km ([2]; His-tagged): 122 µM | kcat ([2]; His-tagged): 0.433 s⁻¹
